# Molecular target: the molecule itself
# Test: cryo-EM structure
protein,measurement,value
"near-full-length human calcium-sensing receptor (CaSR, residues 20-894), Flag-tagged (receptor) AAAYGPDQRAQKKGDIILGGLFPIHFGVAAKDQDLKSRPESVECIRYNFRGFRWLQAMIFAIEEINSSPALLPNLTLGYRIFDTCNTVSKALEATLSFVAQNKIDSLNLDEFCNCSEHIPSTIAVVGATGSGVSTAVANLLGLFYIPQVSYASSSRLLSNKNQFKSFLRTIPNDEHQATAMADIIEYFRWNWVGTIAADDDYGRPGIEKFREEAEERDICIDFSELISQYSDEEEIQHVVEVIQNSTAKVIVVFSSGPDLEPLIKEIVRRNITGKIWLASEAWASSSLIAMPQYFHVVGGTIGFALKAGQIPGFREFLKKVHPRKSVHNGFAKEFWEETFNCHLQEGAKGPLPVDTFLRGHEESGDRFSNSSTAFRPLCTGDENISSVETPYIDYTHLRISYNVYLAVYSIAHALQDIYTCLPGRGLFTNGSCADIKKVEAWQVLKHLRHLNFTNNMGEQVTFDECGDLVGNYSIINWHLSPEDGSIVFKEVGYYNVYAKKGERLFINEEKILWSGFSREVPFSNCSRDCLAGTRKGIIEGEPTCCFECVECPDGEYSDETDASACNKCPDDFWSNENHTSCIAKEIEFLSWTEPFGIALTLFAVLGIFLTAFVLGVFIKFRNTPIVKATNRELSYLLLFSLLCCFSSSLFFIGEPQDWTCRLRQPAFGISFVLCISCILVKTNRVLLVFEAKIPTSFHRKWWGLNLQFLLVFLCTFMQIVICVIWLYTAPPSSYRNQELEDEIIFITCHEGSLMALGFLIGYTCLLAAICFFFAFKSRKLPENFNEAKFITFSMLIFFIVWISFIPAYASTYGKFVSAVEVIAILAASFGLLACIFFNKIYIILFKPSRNTIEEVRCSTAAHAFKVAARATLRRSNV",binding result,binds
